This note sets out measurements from the RNAGym collection of RNA variant scans (doi:10.1073/pnas.2313332121).

B1: TPR t1 (parent)
chain: GACCAAUCUGCCCUCAGAGCUCGAGAACAUCUUCGGAUGCAGAGGAGGCAGGCUUCGGUGGCGCGAUAGCGCCAACGUCCUCAACCUCCAAUGCAUCCCACCACAUGAUGAUGCCUGAAGAGCCUUGGUUUUUUG

Variants of B1 are the subject of the data set. The data set can be described thus: polymerase ribozyme fitness, log enrichment relative to wild type (log ratio); higher = more active; in vitro selection for triplet polymerase activity. Summed up:
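In triplicate, a single round of in vitro selection was run on each mutant library, PCR-built and transcribed, covering one subunit of a heterodimeric triplet polymerase ribozyme. Frozen incubation at −7 °C followed annealing with a biotinylated primer, partner subunit and triplets, and extended constructs were then gel-excised, streptavidin-captured and taken through RT-PCR. Fitness is the logarithm of genotype enrichment over wild-type enrichment, from inverse-variance-weighted replicate averages of Illumina-sequenced inputs and outputs. […] only genotypes with ≥10 input reads and ≥1 read per output were kept.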
With GACCAUUCUGCCCUCAGAGCUCGAGCACAUCUUGGGAUGCAGAGGAGGCAGGCUUCGGUGGCGGGAUAGCGCCAACGUCCUCAACCUCCAAUGCAUCCCACCACAUGAUGUUGCCUGAAGAGCCUUGGUUUUUUG [A6U A26C C34G C64G A111U], the “polymerase ribozyme fitness (log ratio)” value was -7.61.

Turning to GACCAAUCUGCCCUCAAAGGUCGAGAACAUCUUCGGAUGCAGAGGAGGCAGGCUUCGGUGGCGCGAUAGCGCCAACGUCCUCAACCUCCAAUGCAUCCCACCACAUGAUGAUGCCUGAAGGGCCUUGGUUUUUUG [G17A C20G A121G], the “polymerase ribozyme fitness (log ratio)” value is -4.27.

Consider GACCAAUCUGCCCUCAGAGCUCGAGAACAUCUUCGUAUGCAGAGGAGGCAGGCUUCGGUGGCGCGAUAGCGACAACGUCCUCAAACUCCAAAGCAUCCCACCACAUGAUGAAGCCUGAAGAGCCUUGGAUUUUUG [G36U C72A C85A U92A U112A U129A], for which the “polymerase ribozyme fitness (log ratio)” value is -5.86.

Turning to GACCAAUCUCCCCUCAGAGCUCGAGAACAUCUUCGGAUGCAGAGGAUGCAGGCUUCGGUGGCGCGAUAGCGCCAACGUCCUCAACCUCUAAUGCAUCCCACCACAUGAUGAUGCCUGAAGAGCCUUGGUUUUUUG [G10C G47U C89U], the “polymerase ribozyme fitness (log ratio)” value was -5.13.

Take GACCAAUCUGACCUCAGAGCUCGAGAACAUCUUCGGAUGCAGAGGAGGCAGGCGUCGGUGGCGCGAUAGCGCCAACGUCCACAACCUCCAAUGCAUCCCACCACAUGAUGAUGCCUGAAGAGCCUUGGUUUUUUG [C11A U54G U81A]: the “polymerase ribozyme fitness (log ratio)” value is -2.11.

As for GACCAAUCUGACCUCAGAGCUCGAGAACAUCUUCGGAUGCAGAGGAGGCAGGCUUUGGUGGCGCGAUAGCGCCAACGUCCUCAACCUCCAAUGCAUCCCACCACUUGAUGAUGCCUGAAGAGCCUUGGUUUUUUG [C11A C56U A105U], the “polymerase ribozyme fitness (log ratio)” value was -3.49.

For GACCAAUCUGCCCGCAGAGCUCGAGAACAUCUUCGGAUGCAGAGGAGGCAGGCUUCGGUGGCGCGAUAGCGCCAACGUCCUCAACCUCCAAUGCAUCCCACCACAUGAUGAUGCCUAAAGAGCCUUGGUUUUUUG [U14G G117A], the “polymerase ribozyme fitness (log ratio)” value is -2.92.

GACCAAUCUGCCCUCAGAGCUCGAGAACAUCUUCGGAUGCAGAGGAGGUAGGCUUCUGUGACGCGAUAGCGCCAACGUCCUCAACCUCCAAUGCAUCCCACCACAUGAUGAUGCCUGAAAAGCCUUGGUUUUUUG [C49U G57U G61A G120A]: the “polymerase ribozyme fitness (log ratio)” value was -0.511.

On to GACCAAUCUGCCCUCAGAGCUCGAGAACAUCUUCGGAUGCAGAGGAGGCAGUCUUCGGUGGCGCGAUAGCGGCAACGUCCUCAACCUCCAAUGCAUCCCACCACAUGAUGAUGCCUGAAGAGCCUUGGUUUUUUG [G52U C72G], for which the “polymerase ribozyme fitness (log ratio)” value amounted to 0.452.

Regarding GCCCAAUCUGCCCUCAGAGCUCGAGAACAUCUUCGGAUGCAGAGGAGGCAGGCUUCGGUGGCGCGAUAGCGCCAACGUCCUCAACCGCCAAUGCAUCCCACCACAUGAUGAUGCCUGAAGAGCCUUGGUUUUUUG [A2C U87G], the “polymerase ribozyme fitness (log ratio)” value was -1.65.

With GACCAAUCUGCCCUCAGAGCUCGAGAACAUCUUCGGAUCCAGAGGAGGCAGGCUUCGGUGGAGCGAUAGCGCCAACGUCCUCAACCUCCAAUGCAUCCCACCACAUGAUGAUGCCUGAAGAGCCUUGGUUUUUUG [G39C C62A], the “polymerase ribozyme fitness (log ratio)” value was -0.902.

In the case of GACCAAUCUGCCCUCAGAGCUCGAGAACAUCUUCGGAUCCAGGGGAGGCAGGCUUCGGUGGCGCGAUAGCGCCAACGUCCUCAACCUCCAAUGCAUCCCACCACAUGAUGAUGCCUGAAGAGCUUUGGUUUUUUG [G39C A43G C124U], the “polymerase ribozyme fitness (log ratio)” value is -0.831.

On to GACCAAUCUGCCCUCAGAGCUCGAGAACAUCUUCGGAUGCAGAGGAGGCAGGCUUCGGUGGGGCGAUAGCGCCAACGUCCUCAACCUCCAAUACAUCCCACCACAUGAUGAUGCCUGAAGAGCCUUGGUUUUUUG [C62G G93A], for which the “polymerase ribozyme fitness (log ratio)” value is -1.76.

Turning to GACCAAUAUGCCCUCAGAGCUGGAGAACAUCUUCGGAUGCAGAGGAGGCAGGCUUCGGUGGCUCGAUAGCGCCAACGUCCUCAACCUCCAAUGCAUCCCACCACAUGAUGAUGCCUGAAGAGCCUUGGGUUUUUG [C8A C22G G63U U129G], the “polymerase ribozyme fitness (log ratio)” value was -3.84.

For the variant GACCAAUCUGCCCUCAGAGCUCGAGAACAUCUUCGGAUGCAGAGGAGGCAGGCUUCGGUGGCGCGAUAGCGCCAACGACCUCAACCUCCAAUGUAUCCCACCACAUGAUGAUGCAUGAAGAGCCUUCGUUUUUUG [U78A C94U C115A G127C], the “polymerase ribozyme fitness (log ratio)” value is -1.41.

For GACCAAUCUGCCCUCAGAGCUCGAGAACAUCUUCGGAUGCAGAGGAGGCAGGCUUCGUUGGCGCGAUAGGGCCAACGUCCUCAACCUCCAAUGCAUCCCACCACACGAUGAUGCCUGAAGAGCUUUGGUAUUUUG [G58U C70G U106C C124U U130A], the “polymerase ribozyme fitness (log ratio)” value is -2.53.

On to GACCAAUCCGCCCUCAGAGCUCGAGAACAUCUUCGGAUGCCGAGGAGGCAGGCUUCGGUGGCGCGAUAGCGCCAACGUCCUCAACCUCCACUGCAUCCCACCACAUGAUGAUGCCUGAAGAGCCUUGGUUUUUUG [U9C A41C A91C], for which the “polymerase ribozyme fitness (log ratio)” value was -1.02.

With GACCAAUCUGCCCUCAGAGCUCGAGAACAUCUUCGCUUGCAGAGGAGCCAGGCUUCGGUGGCGCGAUAGCGCCAACGUCCUCAACCUCCAUUGCAUCCCACCACAUGAUGAUGCUUGAAGAGCCUUGGUUUUUUG [G36C A37U G48C A91U C115U], the “polymerase ribozyme fitness (log ratio)” value was -4.92.

For the variant GACCAAUCUGCCCUCACAGCUCGAGAACAUCUUCGGAUGCAGAGGAGGCAGGCUUCGGUGUCGCGAUAGCGCCAACGUCCUCAACCUCCAAUGCAUCCCACCACAUGAUGAUGCCUGAAGAGCCUUGGUUUUUUG [G17C G61U], the “polymerase ribozyme fitness (log ratio)” value is -3.71.

For the variant GACCAAUCUGCCCUCAGAGCUCGAGAACAUCUUCGGAUUCUGUGGAGGCAGGCUUCGGUUGCGCGAUAGCGCCAACGUCCUAAACCUCCAAUGCAUCCCACCACAUGAUGAUGACUGAAGAGCCUUGGUUUUUUG [G39U A41U A43U G60U C82A C114A], the “polymerase ribozyme fitness (log ratio)” value is -4.19.

Take GACCAAUCUGCCCUCAGAGCUCGAGAACAUCUUCGGAUGCAGAGGAGGCAGGCUUCGGUGGCGAGAUAGCGCCAACGACCUCAACCUCCAAUACAUCCCACCACAUGAUGAUGCCUGAAGAGCCUUGGUUUUUUG [C64A U78A G93A]: the “polymerase ribozyme fitness (log ratio)” value is -6.61.
